Experimental data as given in patent US20100260748A1.

Molecular target: T1, human FcRH5 (FcRH5c/IRTA2c, PRO52387), recombinant protein ('Hu antigen') (human) (UniProt Q96RD9)
T1 sequence: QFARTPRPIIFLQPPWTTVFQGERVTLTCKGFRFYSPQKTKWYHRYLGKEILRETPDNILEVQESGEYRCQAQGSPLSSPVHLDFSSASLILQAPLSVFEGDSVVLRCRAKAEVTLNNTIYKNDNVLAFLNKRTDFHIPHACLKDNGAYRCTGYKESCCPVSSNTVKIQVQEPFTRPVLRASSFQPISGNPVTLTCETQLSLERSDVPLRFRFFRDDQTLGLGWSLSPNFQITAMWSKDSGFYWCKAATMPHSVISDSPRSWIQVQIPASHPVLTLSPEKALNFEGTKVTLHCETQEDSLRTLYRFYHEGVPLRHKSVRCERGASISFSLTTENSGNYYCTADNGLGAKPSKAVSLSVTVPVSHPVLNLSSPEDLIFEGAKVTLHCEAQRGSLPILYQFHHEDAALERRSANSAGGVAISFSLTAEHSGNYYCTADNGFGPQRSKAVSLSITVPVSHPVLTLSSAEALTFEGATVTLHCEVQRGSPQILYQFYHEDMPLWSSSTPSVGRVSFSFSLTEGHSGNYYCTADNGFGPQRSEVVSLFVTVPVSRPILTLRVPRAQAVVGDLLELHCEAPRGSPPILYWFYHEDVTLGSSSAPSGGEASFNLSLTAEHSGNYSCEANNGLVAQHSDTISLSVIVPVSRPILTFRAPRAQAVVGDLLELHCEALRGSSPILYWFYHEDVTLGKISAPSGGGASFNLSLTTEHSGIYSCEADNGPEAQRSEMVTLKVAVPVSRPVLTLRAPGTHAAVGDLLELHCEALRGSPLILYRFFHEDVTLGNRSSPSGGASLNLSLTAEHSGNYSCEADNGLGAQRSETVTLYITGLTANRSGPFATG
Assay: SPR (Biacore 2000), IgG captured on anti-murine IgG chip, serial dilutions of FcRH injected, 25 C, 1:1 Langmuir fit

B1: murine anti-FcRH5-13G9 monoclonal antibody (antibody, from another filing, V domains shown)
VH: EVQLVQSGPELKKPGETVKISCKASGYTFTNYGMNWVKQAPGKGLKWMGWVNTYTGEPTYTDDFKGRFAFSVETSASTVFLQINNLKNEDTATYFCARRSIPYYYAMDYWGQGTSLT
VL: DIVMTQSQKIMSTSVGDRVNVTCKASQNVGSNVAWYHQKPGQSPKALIYSASYRYSGVPDRFTGSGSGTDFTLTISNVQSEDLAEYFCQQYKTWTFGGGTKLEIKR
Work on B1 yielded a Kd of 19 nM.
